This passage reports Kd and IC50 results from article PMC8831599 (2022).

In one test the target is T1, IAA7 degron (Arabidopsis thaliana, UniProt Q38825, auxin).
T1 chain: QVVGWPPVRNYRK
Kind of test: BLI. (BLI is a label-free optical method that tracks binding on a fibre tip over time.)

A further test has as its target Biotinylated DB21 H101A (biotin on the Avi-tag (BirA-catalyzed)). Kind of test: BLI; 200 uM CBD.
In test [1] the target is T2, Biotinylated DB21 F48A-H101A (biotin on the Avi-tag (BirA-catalyzed)). The test can be described thus: BLI; 200 uM CBD.
In test [2] the target is T3, Biotinylated DB21 F48A (biotin on the Avi-tag (BirA-catalyzed)). Kind of test: BLI; 200 uM CBD.
The target of test [3] is T2, Biotinylated DB21 F48A-H101A. Kind of test: no CBD; AlphaScreen competition.
The target in test [4] is T3, Biotinylated DB21 F48A. The test can be described thus: no CBD; AlphaScreen competition. In general terms: Alpha assays give light when donor and acceptor beads are brought close together.
Test [5] concerns the target T2, Biotinylated DB21 F48A-H101A. The test can be described thus: 200 uM CBD; AlphaScreen competition.
Test [6] has as its target T3, Biotinylated DB21 F48A. Kind of test: 200 uM CBD; AlphaScreen competition.
For test [7], the target named is T4, Biotin-DB21 (biotinylated Avi-DB21) (biotin on the Avi-tag (BirA-catalyzed)). The test can be described thus: no CBD; AlphaScreen competition with His-CA14.
In test [8] the target is T4, Biotin-DB21 (biotinylated Avi-DB21). Kind of test: 200 uM CBD; AlphaScreen competition with His-CA14.
Another test deals with His-DDB1–CRBN complex (human, UniProt Q96SW2 41-442; Q16531 1-1140). The test can be described thus: 200 uM pomalidomide; AlphaScreen competition.
In the next test the target is His-CA14. Kind of test: 200 uM CBD; AlphaScreen competition with Biotin-DB21.
A further test addresses His-CA14 D34A. The description is as above.
Another test has as its target T5, GST-TIR1-ASK1 complex (Arabidopsis thaliana, UniProt Q570C0 1-594; Q39255 1-160).
T5 chain 1: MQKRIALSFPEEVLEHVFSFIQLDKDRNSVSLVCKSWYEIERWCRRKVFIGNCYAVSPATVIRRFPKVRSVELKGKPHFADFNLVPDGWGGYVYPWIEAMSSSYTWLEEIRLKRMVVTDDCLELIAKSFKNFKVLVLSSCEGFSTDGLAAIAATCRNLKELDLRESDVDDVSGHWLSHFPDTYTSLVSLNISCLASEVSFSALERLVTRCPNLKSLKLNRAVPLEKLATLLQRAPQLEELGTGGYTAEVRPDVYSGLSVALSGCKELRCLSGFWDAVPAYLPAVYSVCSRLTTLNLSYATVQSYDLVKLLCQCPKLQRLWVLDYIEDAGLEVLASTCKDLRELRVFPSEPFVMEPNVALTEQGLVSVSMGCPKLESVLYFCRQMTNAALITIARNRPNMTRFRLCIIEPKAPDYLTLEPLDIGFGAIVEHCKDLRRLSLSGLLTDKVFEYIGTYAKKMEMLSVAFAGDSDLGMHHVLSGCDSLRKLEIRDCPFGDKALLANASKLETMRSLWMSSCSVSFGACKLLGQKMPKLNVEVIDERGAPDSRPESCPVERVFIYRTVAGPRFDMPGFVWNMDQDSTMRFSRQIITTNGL
T5 chain 2: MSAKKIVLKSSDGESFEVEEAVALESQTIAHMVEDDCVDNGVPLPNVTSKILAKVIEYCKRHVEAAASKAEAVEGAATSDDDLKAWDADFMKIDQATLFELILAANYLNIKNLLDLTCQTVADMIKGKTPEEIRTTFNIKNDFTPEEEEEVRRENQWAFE
The test can be described thus: 200 uM auxin; AlphaScreen competition with biotin-Aux/IAA7.

B1: TIR1 (protein)
chain: MQKRIALSFPEEVLEHVFSFIQLDKDRNSVSLVCKSWYEIERWCRRKVFIGNCYAVSPATVIRRFPKVRSVELKGKPHFADFNLVPDGWGGYVYPWIEAMSSSYTWLEEIRLKRMVVTDDCLELIAKSFKNFKVLVLSSCEGFSTDGLAAIAATCRNLKELDLRESDVDDVSGHWLSHFPDTYTSLVSLNISCLASEVSFSALERLVTRCPNLKSLKLNRAVPLEKLATLLQRAPQLEELGTGGYTAEVRPDVYSGLSVALSGCKELRCLSGFWDAVPAYLPAVYSVCSRLTTLNLSYATVQSYDLVKLLCQCPKLQRLWVLDYIEDAGLEVLASTCKDLRELRVFPSEPFVMEPNVALTEQGLVSVSMGCPKLESVLYFCRQMTNAALITIARNRPNMTRFRLCIIEPKAPDYLTLEPLDIGFGAIVEHCKDLRRLSLSGLLTDKVFEYIGTYAKKMEMLSVAFAGDSDLGMHHVLSGCDSLRKLEIRDCPFGDKALLANASKLETMRSLWMSSCSVSFGACKLLGQKMPKLNVEVIDERGAPDSRPESCPVERVFIYRTVAGPRFDMPGFVWNMDQDSTMRFSRQIITTNGL
Usually Kd stands for a measure of binding affinity in units of concentration. In the test with IAA7 degron, B1 registered a Kd of 30.5 nM.

B2: CA14 anchor binder nanobody, tag-free (VHH)
VHH: EVQLQASGGGFVQPGGSLRLSCAASGSTSRQYDMGWFRQAPGKEREFVSAISSNQDQPPYYADSVKGRFTISRDNSKNTVYLQMNSLRAEDTATYYCAFKQHHANGAYWGQGTQVTVSS
In general, IC50 refers to the midpoint of a concentration-inhibition curve. A lower IC50 goes with inhibition by little substance. In the case of B2, the Kd stood at 215 nM with Biotinylated DB21 H101A, 1900 nM in test [1] and 1500 nM in the test with Biotinylated DB21 F48A [2]. In addition, the IC50 worked out at 23000 nM in [3]; 18000 nM with Biotinylated DB21 F48A [4]; 4700 nM in [5]; 1700 nM with Biotinylated DB21 F48A [6]; 17000 nM in [7]; 31 nM in test [8].

B3: Label-free IKZF1 ZF2-3 (141-196) (domain or fragment)
chain: GERPFQCNQCGASFTQKGNLLRHIKLHSGEKPFKCHLCNYACRRRDALTGHLRTHS
The molecule B3 registered an IC50 in the test with His-DDB1–CRBN complex of 67 nM.

B4: DB21 dimerization binder nanobody, tag-free (VHH)
VHH: EVQLQASGGGFVQPGGSLRLSCAASGTTYGQTNMGWFRQAPGKEREFVSAISGLQGRDLYYADSVKGRFTISRDNSKNTVYLQMNSLRAEDTATYYCAFHDFLRMWEYWGQGTQVTVSS
For the molecule B4, the figures for the half-inhibitory concentration (IC50) in the test with His-CA14 and with His-CA14 D34A were 35 nM and 27000 nM, respectively.

B5: IAA7 degron peptide, non-labeled (peptide)
chain: QVVGWPPVRNYRK
modifications: synthetic peptide, unlabelled; limits not given, taken from the IAA7 degron peptide of the TIR1-ASK1 crystal structures (13-mer, PDB 2P1Q)
Turning to B5, the IC50 in the test with GST-TIR1-ASK1 complex is 18.4 nM.
